In patent publication US12139520B2 (priority 2020, dated 2024):
Numbered stars: 1 amine (or outer) side, 2 acyl side, 3 side chain; on linkers, the order of the positions; unused ones are H or OH. Bridge positions count the residues as written; N and C are the ends. Square brackets hold non-standard residues; d marks the D form. Side chains are listed from the residue outwards. Ends that are not written are not given here. * marks the point of attachment. C20 diacid = O=C(O)CCCCCCCCCCCCCCCCCCC(=O)*; γGlu = O=C(O)[C@H](CCC(=O)[*:2])N[*:1]; Hyp = O=C(O)[C@@H]1C[C@@H](O)CN1; Trx = NC[C@H]1CC[C@H](C(=O)O)CC1; AEEA = NCCOCCOCC(=O)O

B1: SEQ ID NO: 123 (peptide)
peptide: GCRFGTCTVQRLAHFLYQFTDKDGAIAPRTKIGSQGY
B2: SEQ ID NO: 141 (peptide)
peptide: GCRFGTCTVQRLAHQIYQFTDKDKDNVAPRTNISPQG[Hyp]-NH2
modifications: disulfide 2-7 (inferred); ends not checked
B3: SEQ ID NO: 127 (peptide)
peptide: GCRFGTCTVQRLAHQIYQFTDKDKDNVAPRSKIGPQG[Hyp]-NH2
modifications: disulfide 2-7 (inferred); ends not checked
B4: SEQ ID NO: 126 (peptide)
peptide: {C20 diacid-Trx-γGlu-AEEA-AEEA}-KCNTATCTVQRLAEQIYQFTDKDKDNVAPPTNVGSNG[Hyp]-NH2
modifications: disulfide 2-7 (inferred); ends not checked
B5: SEQ ID NO: 14 (peptide)
peptide: KCNTATCTVQRLAHQIAQFTDKDKDNVAPPTNVGSNG[Hyp]-NH2
modifications: disulfide 2-7 (inferred); ends not checked
B6: SEQ ID NO: 128 (peptide)
peptide: KCNTATCATQRLANFLVHSSNNFGAIAPSTKIGPNGY
B7: SEQ ID NO: 148 (peptide)
peptide: KCNTATCATQRLANFLVHSSNNFGAILSSTKIGSNGY
B8: SEQ ID NO: 125 (peptide)
peptide: GCRFGTCTVQRLAHQIYQFTDKDKDNVAPRTNVSPQG[Hyp]-NH2
modifications: disulfide 2-7 (inferred); ends not checked
B9: SEQ ID NO: 144 (peptide)
peptide: {C20 diacid-γGlu}-KCNTATCTVQRLAEQIAQFTDKDKDPVAPPTNVGSNG[Hyp]-NH2
modifications: disulfide 2-7 (inferred); ends not checked
B10: SEQ ID NO: 140 (peptide)
peptide: GCRFGTCTVQRLAHQIYQFTDKDKDNVAPRTNISPQGY
B11: SEQ ID NO: 132 (peptide)
peptide: GCRFGTCTVQRLAHQIYQFTDKDKDNVAPRTKVSPQG[Hyp]-NH2
modifications: disulfide 2-7 (inferred); ends not checked
B12: SEQ ID NO: 124 (peptide)
peptide: GCRFGTCTVQRLAHQIYQFTDKDKDNVAPRTKIGPNG[Hyp]-NH2
modifications: disulfide 2-7 (inferred); ends not checked
B13: SEQ ID NO: 146 (peptide)
peptide: GCRFGTCTVQRLAHQIYQFTDKDKDNVAPRTKISPQG[Hyp]-NH2
modifications: disulfide 2-7 (inferred); ends not checked
B14: SEQ ID NO: 139 (peptide)
peptide: GCRTGTCTVQRLAHQIYQFTDKDKDNVAPRSKVGPNG[Hyp]-NH2
modifications: disulfide 2-7 (inferred); ends not checked
B15: SEQ ID NO: 135 (peptide)
peptide: GCRFGTCTVQRLAHQIYQFTDKDKDNVAPRSNVGPQG[Hyp]-NH2
modifications: disulfide 2-7 (inferred); ends not checked
B16: SEQ ID NO: 121 (peptide)
peptide: GCRTGTCTVQRLAHQIYQFTDKDKDNVAPRSNVGPQG[Hyp]-NH2
modifications: disulfide 2-7 (inferred); ends not checked
B17: SEQ ID NO: 136 (peptide)
peptide: KCNTATCTVQRLAEQIK([AEEA-AEEA-γGlu-C20 diacid])QFTDKDKDNVAPPTNVGSNG[Hyp]-NH2
modifications: disulfide 2-7 (inferred); ends not checked
B18: SEQ ID NO: 143 (peptide)
peptide: GCRTGTCTVQRLAHQIYQFTDKDKDNVAPRTKVGPQG[Hyp]-NH2
modifications: disulfide 2-7 (inferred); ends not checked
B19: SEQ ID NO: 134 (peptide)
peptide: GCRFGTCTVQRLAHQIYQFTDKDKDNVAPRTKVSPNG[Hyp]-NH2
modifications: disulfide 2-7 (inferred); ends not checked
B20: SEQ ID NO: 122 (peptide)
peptide: {C20 diacid-γGlu}-KCNTATCTVQRLAEQIYQFTDKAKDNVAPPTNVGSNG[Hyp]-NH2
modifications: disulfide 2-7 (inferred); ends not checked
B21: SEQ ID NO: 130 (peptide)
peptide: {C20 diacid-γGlu}-KCNTATCTVDRLAHQIAQFTDKDKDPVAPPTNVGSNG[Hyp]-NH2
modifications: disulfide 2-7 (inferred); ends not checked
B22: SEQ ID NO: 137 (peptide)
peptide: {C20 diacid-γGlu}-KCNTATCTVARLAHQINQFTDKDKDPVAPPTNVGSNG[Hyp]-NH2
modifications: disulfide 2-7 (inferred); ends not checked
B23: SEQ ID NO: 133 (peptide)
peptide: {C20 diacid-γGlu}-KCNTATCTVARLAEQIYQFTDKDKDPVAPPTNVGSNG[Hyp]-NH2
modifications: disulfide 2-7 (inferred); ends not checked
B24: SEQ ID NO: 147 (peptide)
peptide: GCRIGTCTVQRLAHQIYQFTDKFKDNVAPRSKISPQT[Hyp]-NH2
modifications: disulfide 2-7 (inferred); ends not checked
B25: SEQ ID NO: 15 (peptide)
peptide: KCNTSTCTVARLADQITQFSDKDKANVSPPTEVGPNS[Hyp]-NH2
modifications: disulfide 2-7 (inferred); ends not checked
B26: SEQ ID NO: 13 (peptide)
peptide: KCNTATCTVQRLAHAIYQFTDKDKDNVAPPTNVGSNG[Hyp]-NH2
modifications: disulfide 2-7 (inferred); ends not checked
B27: SEQ ID NO: 145 (peptide)
peptide: GCRFGTCTVQRLAHQIYQFTDKDKDNVAPRSNVSPQG[Hyp]-NH2
modifications: disulfide 2-7 (inferred); ends not checked
B28: SEQ ID NO: 129 (peptide)
peptide: GCRTGTCTVQRLAHQIYQFTDKDKDNVAPRSKVGPQGY
B29: SEQ ID NO: 138 (peptide)
peptide: GCRTGTCTVQRLAHQIYQFTDKDKDNVAPRSNVGPQGY
B30: SEQ ID NO: 131 (peptide)
peptide: GCRFGTCTVQRLAHQIYQFTDKDKDNVAPRSNVSPQGY
B31: SEQ ID NO: 142 (peptide)
peptide: GCRTGTCTVQRLAHQIYQFTDKDKDNVAPRTNIGPNGY

Legend:
hAMY3R = target: T1, hAMY3R (human, UniProt P30988); experiment: cell-based or functional assay
T1 sequence 1: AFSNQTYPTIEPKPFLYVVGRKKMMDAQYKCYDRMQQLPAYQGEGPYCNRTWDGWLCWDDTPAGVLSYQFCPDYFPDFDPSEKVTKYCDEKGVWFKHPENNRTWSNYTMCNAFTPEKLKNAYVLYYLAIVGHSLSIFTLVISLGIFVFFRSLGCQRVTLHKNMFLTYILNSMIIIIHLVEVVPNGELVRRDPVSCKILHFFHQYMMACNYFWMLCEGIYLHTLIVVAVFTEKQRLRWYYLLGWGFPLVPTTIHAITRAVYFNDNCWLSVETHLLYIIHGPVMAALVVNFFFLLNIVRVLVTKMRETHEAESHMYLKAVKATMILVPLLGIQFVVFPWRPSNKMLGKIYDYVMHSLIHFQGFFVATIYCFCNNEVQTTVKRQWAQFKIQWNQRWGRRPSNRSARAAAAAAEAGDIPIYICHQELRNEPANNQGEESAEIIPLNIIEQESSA
T1 sequence 2: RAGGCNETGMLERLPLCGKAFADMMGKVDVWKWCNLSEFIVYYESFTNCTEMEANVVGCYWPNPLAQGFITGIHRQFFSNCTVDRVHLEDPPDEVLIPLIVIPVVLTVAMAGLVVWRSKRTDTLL

hAM1R = hAM1R (human, UniProt Q16602); experiment: cell-based or functional assay

Binder | hAMY3R EC50 (cAMP) (hAMY3R) [nM] | hAM1R EC50 (cAMP) (hAM1R) [nM]
B1 | 0.027 | 31.7
B2 | 0.036 | 258
B3 | 0.028 | 107
B4 | 0.027 | > 5000
B5 | 0.007 | > 5000
B6 | 0.028 | 130
B7 | 0.04 | > 5000
B8 | 0.027 | 2980
B9 | 0.038 | > 5000
B10 | 0.036 | 31.4
B11 | 0.031 | 2980
B12 | 0.027 | 34.8
B13 | 0.04 | 2980
B14 | 0.035 | 2980
B15 | 0.033 | 68.4
B16 | 0.026 | 2980

Binder | hAMY3R EC50 (cAMP) (hAMY3R) [nM] | hAM1R EC50 (cAMP) (hAM1R) [nM]
B17 | 0.033 | > 5000
B18 | 0.038 | 2980
B19 | 0.032 | 2980
B20 | 0.026 | > 5000
B21 | 0.03 | > 5000
B22 | 0.034 | > 5000
B23 | 0.031 | > 5000
B24 | 0.04 | 3110
B25 | 0.007 | > 5000
B26 | 0.007 | > 5000
B27 | 0.039 | 2980
B28 | 0.029 | 367
B29 | 0.035 | 2980
B30 | 0.031 | 33.8
B31 | 0.036 | 2980
